# Experimental data published in patent US20060216303A1 (published 2006).
# T1: synthetic polypeptide 20-mer APPAHGVTSAPDTRPAPGST of the breast mucin tandem repeat
# T1 construct: also called synthetic peptide started in the middle of the repeat
# T1 peptide: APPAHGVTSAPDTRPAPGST
# B1: murine BrE-3 monoclonal antibody (antibody, V domains shown)
# VH: EVKLEESGGGLVQPGGSMKLSCAASGFTFSDAWMDWVRQSPEKGLEWVAEIRNKANNHATYYDESVKGRFTISRDDSKSRVYLQMISLRAEDTGLYYCTGEFANWGQGTLVTVSA
# VL: DVVMTQTPLSLPVSLGDQASISCRSSQNLVHNNGNTYLYWFLQKSGQSPKLLIYRASIRFSGVPDRFSGSGSETDFTLKISRVEAEDLGVYFCFQGTHVPWTFGGGTKLEIK
# notes: Whole murine antibody; The entries are printed with a 19-residue leader; also called anti-BrE-3 murine antibody; murine BrE-3 antibody
# Experiments:
# [1] = target: T1, synthetic polypeptide 20-mer …; experiment: binding to synthetic 20-mer
# [2] = target: T2, synthetic polypeptide 20-mer … of the breast mucin tandem repeat; experiment: binding to synthetic 20-mer
# T2 construct: also called synthetic peptide started at the beginning of the 20 amino acid repeat
# T2 sequence (peptide, as listed by the source): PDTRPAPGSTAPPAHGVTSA
binder,measurement,setting,value
B1,binding result,[1],binds
same,binding result,[2],binds
